Source: patent publication US20240279278A1, “NMU RECEPTOR 2 AGONISTS” (Boehringer Ingelheim International GmbH, priority 2023, published 2024)
Residues, ends and D or L forms follow the SMILES beside them.

T1: human NMUR1 receptor (Homo sapiens, UniProt Q9HB89)
T1 construct: expressed in transfected cells; host or cells: CHO-K1
T1 sequence (Q9HB89 1-426): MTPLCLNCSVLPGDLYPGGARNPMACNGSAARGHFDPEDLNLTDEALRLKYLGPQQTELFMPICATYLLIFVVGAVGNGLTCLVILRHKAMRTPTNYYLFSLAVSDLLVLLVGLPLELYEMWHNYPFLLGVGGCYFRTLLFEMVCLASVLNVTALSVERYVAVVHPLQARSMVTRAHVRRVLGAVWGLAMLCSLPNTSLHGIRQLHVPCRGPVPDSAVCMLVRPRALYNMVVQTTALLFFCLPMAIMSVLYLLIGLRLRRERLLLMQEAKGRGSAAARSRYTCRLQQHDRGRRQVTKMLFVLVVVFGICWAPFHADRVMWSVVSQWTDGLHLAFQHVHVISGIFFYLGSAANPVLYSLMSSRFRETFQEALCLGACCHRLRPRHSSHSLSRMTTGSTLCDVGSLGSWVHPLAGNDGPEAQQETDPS

T2: human neuromedin U receptor 1 (human, UniProt Q9HB89 24-426)
T2 sequence (looked up): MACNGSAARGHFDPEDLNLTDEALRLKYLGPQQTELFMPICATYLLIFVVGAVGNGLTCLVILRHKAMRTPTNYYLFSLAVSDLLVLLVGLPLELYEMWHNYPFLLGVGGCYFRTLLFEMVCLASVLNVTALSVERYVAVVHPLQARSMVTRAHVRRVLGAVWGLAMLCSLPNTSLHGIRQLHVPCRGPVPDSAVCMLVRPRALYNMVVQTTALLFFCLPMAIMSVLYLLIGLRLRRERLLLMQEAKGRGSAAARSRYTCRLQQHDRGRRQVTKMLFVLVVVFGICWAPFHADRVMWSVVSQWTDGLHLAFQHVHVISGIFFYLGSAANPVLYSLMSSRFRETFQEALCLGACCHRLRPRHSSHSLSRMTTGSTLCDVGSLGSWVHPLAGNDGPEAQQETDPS

B1: C20DA-gGlu4-Sar15-AEPipAc-Tyr-Phe-NMeLeu-Nle-Dbu-Pro-Arg-Gly-NH2 (peptide)
peptide: EEEEXXXXXXXXXXXXXXXXYFLXXPRG
HELM: PEPTIDE1{[O=C(O)CCCCCCCCCCCCCCCCCCC(=O)[*:2]].[gGlu].[gGlu].[gGlu].[gGlu].[Sar].[Sar].[Sar].[Sar].[Sar].[Sar].[Sar].[Sar].[Sar].[Sar].[Sar].[Sar].[Sar].[Sar].[Sar].[O=C(CN1CCN(CCN[*:1])CC1)[*:2]].Y.F.[meL].[Nle].[Dab].P.R.G.[am]}$$$$V2.0
SMILES: CCCC[C@H](NC(=O)[C@H](CC(C)C)N(C)C(=O)[C@H](Cc1ccccc1)NC(=O)[C@H](Cc1ccc(O)cc1)NC(=O)CN1CCN(CCNC(=O)CN(C)C(=O)CN(C)C(=O)CN(C)C(=O)CN(C)C(=O)CN(C)C(=O)CN(C)C(=O)CN(C)C(=O)CN(C)C(=O)CN(C)C(=O)CN(C)C(=O)CN(C)C(=O)CN(C)C(=O)CN(C)C(=O)CN(C)C(=O)CN(C)C(=O)CC[C@H](NC(=O)CC[C@H](NC(=O)CC[C@H](NC(=O)CC[C@H](NC(=O)CCCCCCCCCCCCCCCCCCC(=O)O)C(=O)O)C(=O)O)C(=O)O)C(=O)O)CC1)C(=O)N[C@@H](CCN)C(=O)N1CCC[C@H]1C(=O)N[C@@H](CCCNC(=N)N)C(=O)NCC(N)=O
B2: C20DA-gGlu3-Sar15-AEPipAc-Tyr-Phe-NMeLeu-Nle-Orn-NMeAla-Arg-Gly-NH2 (peptide)
peptide: EEEXXXXXXXXXXXXXXXXYFLXXARG
HELM: PEPTIDE1{[O=C(O)CCCCCCCCCCCCCCCCCCC(=O)[*:2]].[gGlu].[gGlu].[gGlu].[Sar].[Sar].[Sar].[Sar].[Sar].[Sar].[Sar].[Sar].[Sar].[Sar].[Sar].[Sar].[Sar].[Sar].[Sar].[O=C(CN1CCN(CCN[*:1])CC1)[*:2]].Y.F.[meL].[Nle].[Orn].[meA].R.G.[am]}$$$$V2.0
SMILES: CCCC[C@H](NC(=O)[C@H](CC(C)C)N(C)C(=O)[C@H](Cc1ccccc1)NC(=O)[C@H](Cc1ccc(O)cc1)NC(=O)CN1CCN(CCNC(=O)CN(C)C(=O)CN(C)C(=O)CN(C)C(=O)CN(C)C(=O)CN(C)C(=O)CN(C)C(=O)CN(C)C(=O)CN(C)C(=O)CN(C)C(=O)CN(C)C(=O)CN(C)C(=O)CN(C)C(=O)CN(C)C(=O)CN(C)C(=O)CN(C)C(=O)CC[C@H](NC(=O)CC[C@H](NC(=O)CC[C@H](NC(=O)CCCCCCCCCCCCCCCCCCC(=O)O)C(=O)O)C(=O)O)C(=O)O)CC1)C(=O)N[C@@H](CCCN)C(=O)N(C)[C@@H](C)C(=O)N[C@@H](CCCNC(=N)N)C(=O)NCC(N)=O
B3: C20DA-gGlu3-Sar15-AEPipAc-Tyr-Phe-NMeLeu-Nle-NMeArg-NMeAla-Arg-Gly-NH2 (peptide)
peptide: EEEXXXXXXXXXXXXXXXXYFLXRARG
HELM: PEPTIDE1{[O=C(O)CCCCCCCCCCCCCCCCCCC(=O)[*:2]].[gGlu].[gGlu].[gGlu].[Sar].[Sar].[Sar].[Sar].[Sar].[Sar].[Sar].[Sar].[Sar].[Sar].[Sar].[Sar].[Sar].[Sar].[Sar].[O=C(CN1CCN(CCN[*:1])CC1)[*:2]].Y.F.[meL].[Nle].[meR].[meA].R.G.[am]}$$$$V2.0
SMILES: CCCC[C@H](NC(=O)[C@H](CC(C)C)N(C)C(=O)[C@H](Cc1ccccc1)NC(=O)[C@H](Cc1ccc(O)cc1)NC(=O)CN1CCN(CCNC(=O)CN(C)C(=O)CN(C)C(=O)CN(C)C(=O)CN(C)C(=O)CN(C)C(=O)CN(C)C(=O)CN(C)C(=O)CN(C)C(=O)CN(C)C(=O)CN(C)C(=O)CN(C)C(=O)CN(C)C(=O)CN(C)C(=O)CN(C)C(=O)CN(C)C(=O)CC[C@H](NC(=O)CC[C@H](NC(=O)CC[C@H](NC(=O)CCCCCCCCCCCCCCCCCCC(=O)O)C(=O)O)C(=O)O)C(=O)O)CC1)C(=O)N(C)[C@@H](CCCNC(=N)N)C(=O)N(C)[C@@H](C)C(=O)N[C@@H](CCCNC(=N)N)C(=O)NCC(N)=O
B4: C18DA-gGlu3-Sar12-AEPipAc-Tyr-Phe-NMeLeu-Nle-NMeArg-Pro-Arg-Gly-NH2 (peptide)
peptide: EEEXXXXXXXXXXXXXYFLXRPRG
HELM: PEPTIDE1{[O=C(O)CCCCCCCCCCCCCCCCC(=O)[*:2]].[gGlu].[gGlu].[gGlu].[Sar].[Sar].[Sar].[Sar].[Sar].[Sar].[Sar].[Sar].[Sar].[Sar].[Sar].[Sar].[O=C(CN1CCN(CCN[*:1])CC1)[*:2]].Y.F.[meL].[Nle].[meR].P.R.G.[am]}$$$$V2.0
SMILES: CCCC[C@H](NC(=O)[C@H](CC(C)C)N(C)C(=O)[C@H](Cc1ccccc1)NC(=O)[C@H](Cc1ccc(O)cc1)NC(=O)CN1CCN(CCNC(=O)CN(C)C(=O)CN(C)C(=O)CN(C)C(=O)CN(C)C(=O)CN(C)C(=O)CN(C)C(=O)CN(C)C(=O)CN(C)C(=O)CN(C)C(=O)CN(C)C(=O)CN(C)C(=O)CN(C)C(=O)CC[C@H](NC(=O)CC[C@H](NC(=O)CC[C@H](NC(=O)CCCCCCCCCCCCCCCCC(=O)O)C(=O)O)C(=O)O)C(=O)O)CC1)C(=O)N(C)[C@@H](CCCNC(=N)N)C(=O)N1CCC[C@H]1C(=O)N[C@@H](CCCNC(=N)N)C(=O)NCC(N)=O
B5: C18DA-gGlu3-Sar12-AEPipAc-Tyr-Phe-NMeLeu-Nle-NMeArg-NMeAla-Arg-Gly-NH2 (peptide)
peptide: EEEXXXXXXXXXXXXXYFLXRARG
HELM: PEPTIDE1{[O=C(O)CCCCCCCCCCCCCCCCC(=O)[*:2]].[gGlu].[gGlu].[gGlu].[Sar].[Sar].[Sar].[Sar].[Sar].[Sar].[Sar].[Sar].[Sar].[Sar].[Sar].[Sar].[O=C(CN1CCN(CCN[*:1])CC1)[*:2]].Y.F.[meL].[Nle].[meR].[meA].R.G.[am]}$$$$V2.0
SMILES: CCCC[C@H](NC(=O)[C@H](CC(C)C)N(C)C(=O)[C@H](Cc1ccccc1)NC(=O)[C@H](Cc1ccc(O)cc1)NC(=O)CN1CCN(CCNC(=O)CN(C)C(=O)CN(C)C(=O)CN(C)C(=O)CN(C)C(=O)CN(C)C(=O)CN(C)C(=O)CN(C)C(=O)CN(C)C(=O)CN(C)C(=O)CN(C)C(=O)CN(C)C(=O)CN(C)C(=O)CC[C@H](NC(=O)CC[C@H](NC(=O)CC[C@H](NC(=O)CCCCCCCCCCCCCCCCC(=O)O)C(=O)O)C(=O)O)C(=O)O)CC1)C(=O)N(C)[C@@H](CCCNC(=N)N)C(=O)N(C)[C@@H](C)C(=O)N[C@@H](CCCNC(=N)N)C(=O)NCC(N)=O

Legend:
[1] = biological target: T3, human NMUR2 receptor (Homo sapiens, UniProt Q9GZQ4); assay: IP1 Gq HTRF assay, activation of human NMUR2 in buffer; type: cell-based; parameters: expressed in transfected cells; host or cells: CHO-K1; conditions: CHO-K1 cells expressing human NMUR2, stimulation buffer with 0.1% BSA; read-out: EC50 (hNMUR2) buffer
Procedure, shortened: (§1)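 CHO-K1 cells stably expressing human NMUR1 or NMUR2, seeded 24 h before assay, stimulated with peptide agonists (8-point dose-response, 1% DMSO final) in HEPES/HBSS buffer with 50 mM LiCl and 0.1% BSA, pH 7.4, 1 h at 37 °C. IP1 accumulation read by HTRF competition (665/620 nm); EC50 from 4-parameter sigmoidal fit.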

[2] = biological target: T1, human NMUR1 receptor; assay: IP1 Gq HTRF assay, activation of human NMUR1 in buffer; type: cell-based; conditions: CHO-K1 cells expressing human NMUR1, stimulation buffer with 0.1% BSA; read-out: EC50 (hNMUR1) buffer
Procedure, shortened: as §1

[3] = biological target: T3, human NMUR2 receptor; assay: IP1 Gq HTRF assay, activation of human NMUR2 in human plasma; type: cell-based; parameters: expressed in transfected cells; host or cells: CHO-K1; conditions: CHO-K1 cells expressing human NMUR2, 100% human plasma; read-out: EC50 (hNMUR2) human plasma
Procedure, shortened: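 CHO-K1 cells stably expressing human NMUR2 exposed to peptide agonists (8-point dose-response) in 100% human plasma with 50 mM LiCl, 1% DMSO, for 1 h at 37° C. IP1 accumulation read by HTRF competition (665/620 nm ratio). EC50 from 4-parameter sigmoidal fit.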

[4] = biological target: T2, human neuromedin U receptor 1; assay: cell-based or functional assay

T3 sequence (Q9GZQ4 whole entry): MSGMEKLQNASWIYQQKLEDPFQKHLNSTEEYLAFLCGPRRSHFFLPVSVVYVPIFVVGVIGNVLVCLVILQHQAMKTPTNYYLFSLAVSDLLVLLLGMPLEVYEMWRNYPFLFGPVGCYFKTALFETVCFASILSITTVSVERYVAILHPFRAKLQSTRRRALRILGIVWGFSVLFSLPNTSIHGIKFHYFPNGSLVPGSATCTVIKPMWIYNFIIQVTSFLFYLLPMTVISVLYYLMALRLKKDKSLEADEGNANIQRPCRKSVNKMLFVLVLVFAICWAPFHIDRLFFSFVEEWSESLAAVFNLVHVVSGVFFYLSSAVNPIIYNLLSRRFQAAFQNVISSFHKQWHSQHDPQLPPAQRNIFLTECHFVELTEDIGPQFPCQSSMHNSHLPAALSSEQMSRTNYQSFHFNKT

Row | Molecule | EC50 (hNMUR1) buffer [4] [nM] | also measured
1 | CCCC[C@H](NC(=O)[C@H](CC(C)C)N(C)C(=O)[C@H](Cc1ccccc1)NC(=O)[C@H](Cc1ccc(O)cc1)NC(=O)CN1CCN(C(=O)CN(C)C(=O)CN(C)C(=O)CN(C)C(=O)CN(C)C(=O)CN(C)C(=O)CN(C)C(=O)CN(C)C(=O)CN(C)C(=O)CN(C)C(=O)CN(C)C(=O)CN(C)C(=O)CN(C)C(=O)CN(C)C(=O)CN(C)C(=O)CN(C)C(=O)CC[C@H](NC(=O)CC[C@H](NC(=O)CC[C@H](NC(=O)CCCCCCCCCCCCCCCCC(=O)O)C(=O)O)C(=O)O)C(=O)O)CC1)C(=O)N[C@@H](CCN)C(=O)N(C)[C@@H](C)C(=O)N[C@@H](CCCNC(=N)N)C(=O)NCC(N)=O [Compound 79, C18DA-gGlu3-Sar15-PipAc-Tyr-Phe-NMeLeu-Nle-Dbu-NMeAla-Arg-Gly-NH2] (HELM PEPTIDE1{[O=C(O)CCCCCCCCCCCCCCCCC(=O)[*:2]].[gGlu].[gGlu].[gGlu].[Sar].[Sar].[Sar].[Sar].[Sar].[Sar].[Sar].[Sar].[Sar].[Sar].[Sar].[Sar].[Sar].[Sar].[Sar].[O=C(CN1CCN([*:1])CC1)[*:2]].Y.F.[meL].[Nle].[Dab].[meA].R.G.[am]}$$$$V2.0) |  | EC50 [1]: 1.3 nM; EC50 [2]: > 1000 nM; EC50 [3]: 7 nM
2 | B1 | 770 | 
3 | B2 | > 1000 | 
4 | B3 | 1400 | 
5 | B4 | 190 | 
6 | B5 | 1300 | 
